The text below walks through data of patent US20240116985A1, “STAPLED PEPTIDES AND METHODS THEREOF” (priority 2020, published 2024).

A word on the IC50: it is the point on the concentration scale where inhibition reaches its midpoint. By EC50 is commonly meant the concentration giving half of the maximal effect.

Starred links: 1 amine or outer side, 2 acyl side, 3 side chain; linkers in the order of their positions; H or OH if unused. Positions of bridges follow the written chain, without caps; N, C: chain ends. Non-standard residues stand in square brackets, D forms with d. Primed or numbered codes have the meaning given here. *: point of attachment. B5(4) = 2,2-bis(4-pentenyl)glycine = 2-amino-2-(pent-4-en-1-yl)hept-6-enoic acid (stitching residue), C=CCCCC(CCCC=C)(N[*:1])C(=O)[*:2]; B5(20) = 2-amino-2-(pent-4-en-1-yl)hept-6-enoic acid = bis(4-pentenyl)glycine, stitching residue, C=CCCCC(CCCC=C)(N[*:1])C(=O)[*:2]; Ala(1H-tetrazol-5-yl) = N[C@@H](Cc1nnn[nH]1)C(=O)O; Ala(4-thiazolyl) = N[C@@H](Cc1cscn1)C(=O)O; Abu(4,4,4-F3) = N[C@@H](CC(F)(F)F)C(=O)O; Phe(4-NH2) = Nc1ccc(C[C@H](N)C(=O)O)cc1; Ala(2-furyl) = N[C@@H](Cc1ccco1)C(=O)O; Phe(3-Me) = Cc1cccc(C[C@H](N)C(=O)O)c1; Phe(4-Me) = Cc1ccc(C[C@H](N)C(=O)O)cc1; Phe(2-Me) = Cc1ccccc1C[C@H](N)C(=O)O; Abu(4,4-F2) = N[C@@H](CC(F)F)C(=O)O; Bta = N[C@@H](Cc1csc2ccccc12)C(=O)O; αAllylPro = C=CC[C@@]1(C(=O)O)CCCN1; hPhe = N[C@@H](CCc1ccccc1)C(=O)O; 2Thi = N[C@@H](Cc1cccs1)C(=O)O; 3Thi = N[C@@H](Cc1ccsc1)C(=O)O; S8 = C=CCCCCCC[C@](C)(N)C(=O)O; Nva = CCC[C@H](N)C(=O)O; Abu = CC[C@H](N)C(=O)O; Dap = NC[C@H](N)C(=O)O; Ms = CS(=O)(=O)*

The target in one assay is full-length beta-Catenin (Uniprot ID P35222) (Homo sapiens (Human)) (UniProt P35222). The assay is described as follows: FP competition: full-length beta-catenin 10 nM + 5FAM-TCF4(10-53) 10 nM.
full-length beta-Catenin (Uniprot ID P35222) (Homo sapiens (Human)), sequence (P35222 whole entry): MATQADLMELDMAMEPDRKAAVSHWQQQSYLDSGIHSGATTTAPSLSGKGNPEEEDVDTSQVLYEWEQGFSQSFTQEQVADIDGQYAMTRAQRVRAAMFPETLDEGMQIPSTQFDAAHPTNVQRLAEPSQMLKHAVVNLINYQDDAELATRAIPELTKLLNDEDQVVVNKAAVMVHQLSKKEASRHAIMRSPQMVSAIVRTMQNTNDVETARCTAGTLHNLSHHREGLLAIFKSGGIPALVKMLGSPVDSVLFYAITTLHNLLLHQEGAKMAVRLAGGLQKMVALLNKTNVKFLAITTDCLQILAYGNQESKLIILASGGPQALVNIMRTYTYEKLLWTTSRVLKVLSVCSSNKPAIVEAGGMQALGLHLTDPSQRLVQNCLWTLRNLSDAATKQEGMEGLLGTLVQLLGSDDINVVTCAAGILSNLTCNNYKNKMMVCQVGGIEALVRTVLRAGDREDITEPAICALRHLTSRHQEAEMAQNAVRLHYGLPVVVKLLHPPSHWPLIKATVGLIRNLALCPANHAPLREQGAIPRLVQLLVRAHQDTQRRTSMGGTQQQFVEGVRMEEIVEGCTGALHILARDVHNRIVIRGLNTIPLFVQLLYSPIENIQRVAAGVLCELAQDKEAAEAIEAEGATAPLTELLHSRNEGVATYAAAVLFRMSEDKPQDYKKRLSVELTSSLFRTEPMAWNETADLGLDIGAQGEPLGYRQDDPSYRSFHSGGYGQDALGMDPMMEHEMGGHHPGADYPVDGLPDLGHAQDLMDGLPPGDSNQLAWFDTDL
With Ac-[αAllylPro]DA[B5(4)][Dap](Ms)EAAFN[S8]F[Bta]Q-NH2 (staple 1-4, 4-11) [I-529], the IC50 was 5000 nM.
Still for that read-out and setting: under Ac-[αAllylPro]DA[B5(20)]DEAAFN[S8][3Thi][Bta]H-NH2 (staple 1-4, 4-11; also: later-eluting HPLC peak of staple isomers) [I-516] stands 23 nM; under Ac-[αAllylPro]DA[B5(20)]DEAAFN[S8][3Thi][Bta]Q-NH2 (staple 1-4, 4-11; also: later-eluting HPLC peak of staple isomers) [I-519], 33 nM; under Ac-[αAllylPro]DA[B5(4)]DEAAFQ[S8]F[Bta][Abu]-NH2 (staple 1-4, 4-11) [I-509], 99 nM.
On the same count and under the same terms, under Ac-[αAllylPro]DI[B5(20)]DEAAFN[S8][3Thi][Bta]Q-NH2 (staple 1-4, 4-11; also: later-eluting HPLC peak of staple isomers) [I-521] stands 23 nM.
Still for that read-out and setting: with Ac-[αAllylPro]D[Abu(4,4,4-F3)][B5(4)]DEAAFQ[S8]F[Bta]H-NH2 (staple 1-4, 4-11) [I-504] the figure was 65 nM; with Ac-[αAllylPro]DI[B5(4)]DEAAFN[S8][3Thi][Bta]H-NH2 (staple 1-4, 4-11) [I-517], 15 nM.
For the molecule Ac-[αAllylPro]DA[B5(4)]DEAA[Ala(4-thiazolyl)]N[S8]F[Bta]Q-NH2 (staple 1-4, 4-11) [I-524], the IC50 turned out to be 2550 nM.
With Ac-[αAllylPro]D[Nva][B5(4)]DEAAFQ[S8]F[Bta]Q-NH2 (staple 1-4, 4-11; also: later eluting HPLC peak staple isomer) [I-523], the IC50 came out at 44 nM.
On the same count and under the same terms, under Ac-[αAllylPro]DA[B5(4)][Dap](Ms)EAAFN[S8]F[Bta]Q-NH2 (staple 1-4, 4-11) [I-530] stands 5000 nM; under Ac-[αAllylPro]D[Abu(4,4-F2)][B5(4)]DEAAFQ[S8]F[Bta]Q-NH2 (staple 1-4, 4-11) [I-503], 84 nM.

For a further assay the target is unchanged. In words: fluorescence polarization competition; full-length beta-catenin, competitor 5FAM-TCF4(10-53) probe. In general terms: Fluorescence polarisation rises when a labelled molecule tumbles more slowly, as on binding a larger partner.
For the molecule Ac-[αAllylPro]DA[B5(4)]DEAA[Phe(3-Me)]N[S8]F[Bta]Q-NH2 (staple 1-4, 4-11) [I-458], the IC50 stood at 102 nM.
Still for that read-out and setting: with Ac-[αAllylPro]DA[B5(4)]DEAA[2Thi]N[S8]F[Bta]Q-NH2 (staple 1-4, 4-11; also: staple isomer composition, earlier-eluting HPLC peak) [I-446] the figure was 130 nM; with Ac-[αAllylPro]DA[B5(4)]DEAA[2Thi]N[S8]F[Bta]Q-NH2 (staple 1-4, 4-11) [I-447], 74 nM.
Same read-out and setting: with Ac-[αAllylPro]DA[B5(4)]DEAA[Phe(4-NH2)]N[S8]F[Bta]Q-NH2 (staple 1-4, 4-11) [I-461] the figure was 125 nM.
The same measure, in the same setting: under Ac-[αAllylPro]DA[B5(4)]D[Ala(1H-tetrazol-5-yl)]AAFN[S8]F[Bta]Q-NH2 (staple 1-4, 4-11) [I-444] stands 80 nM.
Ac-[αAllylPro]DA[B5(4)]DEAA[Phe(2-Me)]N[S8]F[Bta]Q-NH2 (staple 1-4, 4-11) [I-457] yielded an IC50 of 1440 nM.
Still for that read-out and setting: with Ac-[αAllylPro]DA[B5(4)]DEAAFN[S8][hPhe][Bta]Q-NH2 (staple 1-4, 4-11; also: staple isomer composition, earlier-eluting HPLC peak) [I-442] the figure was 4480 nM; with Ac-[αAllylPro]DA[B5(4)]DEAA[Ala(2-furyl)]N[S8]F[Bta]Q-NH2 (staple 1-4, 4-11) [I-460], 196 nM.
Same read-out and setting: with Ac-[αAllylPro]DA[B5(4)][Ala(1H-tetrazol-5-yl)]DAAFN[S8]F[Bta]Q-NH2 (staple 1-4, 4-11) [I-445] the figure was 4960 nM; with Ac-[αAllylPro]DA[B5(4)]DEAA[3Thi]N[S8]F[Bta]Q-NH2 (staple 1-4, 4-11) [I-449], 53 nM; with Ac-[αAllylPro]DA[B5(4)]DEAA[Phe(2-Me)]N[S8]F[Bta]Q-NH2 (staple 1-4, 4-11) [I-456], 2170 nM.
The same measure, in the same setting: under Ac-[αAllylPro]DA[B5(4)]DEAA[3Thi]N[S8]F[Bta]Q-NH2 (staple 1-4, 4-11) [I-448] stands 92 nM; under Ac-[αAllylPro]DA[B5(4)]DEAA[Phe(4-Me)]N[S8]F[Bta]Q-NH2 (staple 1-4, 4-11) [I-459], 183 nM; under Ac-[αAllylPro]DA[B5(4)]DEAAFN[S8][hPhe][Bta]Q-NH2 (staple 1-4, 4-11; also: staple isomer composition, later-eluting HPLC peak) [I-443], 2130 nM.

For a further assay the target is unchanged. In words: fluorescence polarization competition; 10 nM full-length beta-catenin + 10 nM 5FAM-TCF4(10-53) probe.
Consider Ac-[αAllylPro]DA[B5(4)][Dap](Ms)EAAFN[S8]F[Bta]Q-NH2 (staple 1-4, 4-11) [I-529], for which the EC50 worked out at 5000 nM.
The same measure, in the same setting: under Ac-[αAllylPro]DA[B5(4)]DEAAFQ[S8]F[Bta][Abu]-NH2 (staple 1-4, 4-11) [I-509] stands 99 nM.
Same read-out and setting: with Ac-[αAllylPro]D[Abu(4,4,4-F3)][B5(4)]DEAAFQ[S8]F[Bta]H-NH2 (staple 1-4, 4-11) [I-504] the figure was 65 nM.
Regarding Ac-[αAllylPro]DI[B5(4)]DEAAFN[S8][3Thi][Bta]H-NH2 (staple 1-4, 4-11) [I-517], the concentration for a half-maximal effect (EC50) came to 15 nM.
Still for that read-out and setting: under Ac-[αAllylPro]DA[B5(4)]DEAA[Ala(4-thiazolyl)]N[S8]F[Bta]Q-NH2 (staple 1-4, 4-11) [I-524] stands 2550 nM; under Ac-[αAllylPro]DA[B5(4)][Dap](Ms)EAAFN[S8]F[Bta]Q-NH2 (staple 1-4, 4-11) [I-530], 5000 nM.

The next assay shares this target. In words: fluorescence polarization competition; displacement of 5FAM-TCF4(10-53) from full-length beta-catenin.
For the molecule Ac-[αAllylPro]D[Abu(4,4-F2)][B5(4)]DEAAFQ[S8]F[Bta]Q-NH2 (staple 1-4, 4-11) [I-503], the concentration giving a half-maximal response (EC50) was 84 nM.

The target is the same in a further assay. In words: fluorescence polarization competition: full-length beta-catenin + 5FAM-TCF4(10-53) probe, peptide titrated.
Consider Ac-[αAllylPro]DA[B5(4)]DEAA[Phe(3-Me)]N[S8]F[Bta]Q-NH2 (staple 1-4, 4-11) [I-458], for which the half-maximal effective concentration (EC50) was 102 nM.
Same read-out and setting: with Ac-[αAllylPro]DA[B5(4)]DEAA[2Thi]N[S8]F[Bta]Q-NH2 (staple 1-4, 4-11; also: staple isomer composition, earlier-eluting HPLC peak) [I-446] the figure was 130 nM; with Ac-[αAllylPro]DA[B5(4)]DEAA[2Thi]N[S8]F[Bta]Q-NH2 (staple 1-4, 4-11) [I-447], 74 nM.
With Ac-[αAllylPro]DA[B5(4)]DEAA[Phe(4-NH2)]N[S8]F[Bta]Q-NH2 (staple 1-4, 4-11) [I-461], the 50% effective concentration (EC50) came to 125 nM.
Still for that read-out and setting: with Ac-[αAllylPro]DA[B5(4)]D[Ala(1H-tetrazol-5-yl)]AAFN[S8]F[Bta]Q-NH2 (staple 1-4, 4-11) [I-444] the figure was 80 nM; with Ac-[αAllylPro]DA[B5(4)]DEAA[Phe(2-Me)]N[S8]F[Bta]Q-NH2 (staple 1-4, 4-11) [I-457], 1440 nM.
On the same count and under the same terms, with Ac-[αAllylPro]DA[B5(4)]DEAAFN[S8][hPhe][Bta]Q-NH2 (staple 1-4, 4-11; also: staple isomer composition, earlier-eluting HPLC peak) [I-442] the figure was 4480 nM.
Still for that read-out and setting: under Ac-[αAllylPro]DA[B5(4)]DEAA[Ala(2-furyl)]N[S8]F[Bta]Q-NH2 (staple 1-4, 4-11) [I-460] stands 196 nM; under Ac-[αAllylPro]DA[B5(4)][Ala(1H-tetrazol-5-yl)]DAAFN[S8]F[Bta]Q-NH2 (staple 1-4, 4-11) [I-445], 4960 nM.
Turning to Ac-[αAllylPro]DA[B5(4)]DEAA[3Thi]N[S8]F[Bta]Q-NH2 (staple 1-4, 4-11) [I-449], the EC50 was 53 nM.
The same measure, in the same setting: under Ac-[αAllylPro]DA[B5(4)]DEAA[Phe(2-Me)]N[S8]F[Bta]Q-NH2 (staple 1-4, 4-11) [I-456] stands 2170 nM; under Ac-[αAllylPro]DA[B5(4)]DEAA[3Thi]N[S8]F[Bta]Q-NH2 (staple 1-4, 4-11) [I-448], 92 nM.
Still for that read-out and setting: under Ac-[αAllylPro]DA[B5(4)]DEAA[Phe(4-Me)]N[S8]F[Bta]Q-NH2 (staple 1-4, 4-11) [I-459] stands 183 nM; under Ac-[αAllylPro]DA[B5(4)]DEAAFN[S8][hPhe][Bta]Q-NH2 (staple 1-4, 4-11; also: staple isomer composition, later-eluting HPLC peak) [I-443], 2130 nM.
